# Laboratory results published in patent US20190256599A1 (GlaxoSmithKline, published 2019).
# T1: human ICOS on cells (human, UniProt Q9Y6W8 21-199)
# T1 sequence (looked up): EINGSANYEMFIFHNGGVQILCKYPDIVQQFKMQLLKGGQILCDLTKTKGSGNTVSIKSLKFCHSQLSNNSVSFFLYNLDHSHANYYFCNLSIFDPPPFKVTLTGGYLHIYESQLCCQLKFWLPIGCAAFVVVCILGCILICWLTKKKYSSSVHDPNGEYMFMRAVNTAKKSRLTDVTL
# T2: human ICOS ligand (B7-H2) (human, UniProt O75144 19-258, limits assumed)
# T2 construct: also called native ICOS-L; CD275
# T2 sequence (looked up): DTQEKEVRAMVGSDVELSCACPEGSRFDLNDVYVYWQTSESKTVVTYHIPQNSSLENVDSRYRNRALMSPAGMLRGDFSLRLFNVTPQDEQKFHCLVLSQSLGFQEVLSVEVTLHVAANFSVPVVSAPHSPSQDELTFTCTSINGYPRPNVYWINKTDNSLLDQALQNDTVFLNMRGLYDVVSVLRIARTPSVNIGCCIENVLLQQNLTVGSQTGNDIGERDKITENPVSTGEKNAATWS
# B1: H2L5 IgG4PE (antibody, V domains shown)
# VH: QVQLVQSGAEVKKPGSSVKVSCKASGYTFTDYAMHWVRQAPGQGLEWMGLISIYSDHTNYNQKFQGRVTITADKSTSTAYMELSSLRSEDTAVYYCGRNNYGNYGWYFDVWGQGTTVTVSS
# VL: EIVLTQSPATLSLSPGERATLSCSASSSVSYMHWYQQKPGQAPRLLIYDTSKLASGIPARFSGSGSGTDYTLTISSLEPEDFAVYYCFQGSGYPYTFGQGTKLEIK
# notes: Humanized variant of murine clone 422.2; human IgG4 with S228P and L235E (EU numbering), called IgG4PE; also called H2L5 hIgG4PE; ICOS IgG4PE
# B2: rabbit Fc-tagged recombinant human ICOS (Fc fusion, UniProt Q9Y6W8 21-140, looked up, not shown: a dimerising Fc or GST)
# chain: EINGSANYEMFIFHNGGVQILCKYPDIVQQFKMQLLKGGQILCDLTKTKGSGNTVSIKSLKFCHSQLSNNSVSFFLYNLDHSHANYYFCNLSIFDPPPFKVTLTGGYLHIYESQLCCQLK
# notes: Generated in-house; also called dimeric human ICOS; Fc-fusion version of the recombinant ICOS protein
# B3: recombinant ICOS protein (R&D Systems) (receptor, human, UniProt Q9Y6W8 21-141, looked up)
# chain: EINGSANYEMFIFHNGGVQILCKYPDIVQQFKMQLLKGGQILCDLTKTKGSGNTVSIKSLKFCHSQLSNNSVSFFLYNLDHSHANYYFCNLSIFDPPPFKVTLTGGYLHIYESQLCCQLKF
# notes: Bought; also called ICOS receptor
# How the values were obtained:
# [1] = target: B3; assay: MSD competition assay: plate-coated recombinant ICOS, H2L5 IgG4PE titrated against 1 µg/mL human ICOS ligand (B7-H2); inhibition is partial
# Experimental: (§1) MSD plates were incubated overnight at 4° C. with 10 μg/mL recombinant ICOS protein (R&D Systems) diluted in PBS. […] Sulfo-tagged streptavidin at 10 μg/mL in Diluent 100 was used for detection of the biotinylated ligand. All incubations were at room temperature for one hour on a plate shaker unless otherwise noted. The plates were read immediately following MSD Readbuffer addition on a MSD MESO Quick Plex SQ 120 and data analyzed on MSD workbench software (Meso Scale Discovery).
# [2] = target: rabbit Fc-tagged recombinant Cynomolgus ICOS (cynomolgus macaque); assay: SPR, Biacore T200, Fc-tagged recombinant cynomolgus ICOS, 1:1 kinetics model
# [3] = target: B3; assay: MSD competition assay on plate-coated ICOS; blocked ligand: human ICOS ligand at 1 ug/mL
# Experimental: as §1, with “Read buffer” for “Readbuffer”, “(Meso-Scale, Rockville, Md.).” for “(Meso Scale Discovery).”
# [4] = target: human FcγR IIb (human) (UniProt P31994); assay: SPR (ProteOn XPR36; table title says BIAcore), His-tagged FcγR captured, antibody as analyte, equilibrium model
# [5] = target: human FcγR I (human) (UniProt P12314); assay: as above
# [6] = target: human FcγR IIa (R131) (human) (UniProt P12318); assay: as above
# [7] = target: B2; assay: BIAcore target capture, capture level hICOS 23.7 RU, Rmax 26.5 RU
# [8] = target: B2; assay: Biacore (SPR), column HUMAN kd (1/s)
# Excerpt: (§2) The ICOS binding data was fitted to a 1:1 kinetics model using the T200 data analysis software.
# [9] = target: B2; assay: SPR, Biacore; affinity of H2L5 for dimeric human ICOS against that of ICOS-L
# [10] = target: T1, human ICOS on cells; assay: cell-based or functional assay
# [11] = target: rabbit Fc-tagged recombinant Cynomolgus ICOS (cynomolgus macaque); assay: Biacore (SPR), column MONKEY ka (1/Ms)
# [12] = target: rabbit Fc-tagged recombinant Cynomolgus ICOS (cynomolgus macaque); assay: Biacore (SPR), column MONKEY kd (1/s)
# [13] = target: B2; assay: BIAcore target capture, capture level hICOS 39.8 RU, Rmax 40.5 RU
# [14] = target: B2; assay: Biacore (SPR), column HUMAN ka (1/Ms)
# Excerpt: as §2
# [15] = target: B2; assay: SPR, Biacore T200, Fc-tagged recombinant human ICOS, 1:1 kinetics model
# Excerpt: as §2
# [16] = target: T2, human ICOS ligand (B7-H2); assay: Biacore sensorgrams with fitted curves, ICOS-L on dimeric human ICOS
# [17] = target: T2, human ICOS ligand (B7-H2); assay: Biacore (SPR), human ICOS-L on dimeric human ICOS
# [18] = target: T2, human ICOS ligand (B7-H2); assay: MSD plate assay: 1 µg/mL human ICOS ligand (B7-H2) on plate-coated recombinant ICOS, detected with biotinylated anti-ICOS-L and sulfo-tag streptavidin
# Experimental: as §1
# human FcγR IIb (human), sequence (P31994 46-217 limits assumed): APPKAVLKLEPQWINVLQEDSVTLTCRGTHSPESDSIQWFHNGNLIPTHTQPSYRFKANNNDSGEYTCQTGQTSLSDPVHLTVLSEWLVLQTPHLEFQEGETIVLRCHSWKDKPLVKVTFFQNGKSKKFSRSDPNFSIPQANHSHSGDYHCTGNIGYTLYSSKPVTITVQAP
# human FcγR IIa (R131) (human), sequence (P12318 36-218 H167R limits assumed): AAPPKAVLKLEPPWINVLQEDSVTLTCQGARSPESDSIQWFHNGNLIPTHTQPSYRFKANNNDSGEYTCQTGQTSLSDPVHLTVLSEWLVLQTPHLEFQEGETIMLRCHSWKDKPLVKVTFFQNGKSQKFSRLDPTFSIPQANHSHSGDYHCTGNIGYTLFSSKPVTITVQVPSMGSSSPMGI
# human FcγR I (human), sequence (P12314 16-288 limits assumed): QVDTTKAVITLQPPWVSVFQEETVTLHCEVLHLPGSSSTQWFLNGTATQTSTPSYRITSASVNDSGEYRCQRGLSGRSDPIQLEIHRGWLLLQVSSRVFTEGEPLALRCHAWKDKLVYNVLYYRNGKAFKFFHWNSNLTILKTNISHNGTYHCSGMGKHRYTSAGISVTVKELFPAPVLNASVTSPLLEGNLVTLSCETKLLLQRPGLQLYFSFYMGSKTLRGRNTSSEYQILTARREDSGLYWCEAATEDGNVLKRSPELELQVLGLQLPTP
binder,measurement,setting,value
B1,IC50 (read off the curve),[1],~2 µg/mL
same,Kd,[2],0.95 nM
same,IC50 (read off the curve),[3],~2 µg/mL
same,Kd,[4],1470 nM
same,Kd,[5],645 nM
same,Kd,[6],2500 nM
same,stoichiometry,[7],0.6
same,koff,[8],0.000396 s⁻¹
same,fold higher affinity than native ICOS-L/CD275,[9],~17 fold
same,"EC50 of IFNγ induction, isolated human CD4+ T cells, immobilized format, first donor",[10],3.8 µg/mL
same,"EC50 of IFNγ induction, isolated human CD4+ T cells, immobilized format, second donor",[10],4.5 µg/mL
same,"EC50 of IFNγ induction, isolated human CD4+ T cells, soluble format, first donor",[10],6 µg/mL
same,"EC50 of IFNγ induction, isolated human CD4+ T cells, soluble format, second donor",[10],4.3 µg/mL
same,kon,[11],391000 M⁻¹ s⁻¹
same,koff,[12],0.000371 s⁻¹
same,stoichiometry,[13],0.5
same,kon,[14],297000 M⁻¹ s⁻¹
same,Kd,[15],1.34 nM
B2,Kd,[16],22.6 nM
same,Kd,[17],22.6 nM
B3,binding result,[18],binds
